Measured values reported in article PMC8777244.

Key:
[1] = target: MBP-fused human Nox5β dehydrogenase domain residues 528-719 (human) (UniProt Q96PH1); assay: ITC
[2] = target: MBP-fused human Nox5β dehydrogenase domain residues 584-719 (human) (UniProt Q96PH1); assay: ITC
[3] = target: MBP-fused human Nox5β dehydrogenase domain residues 605-719 (human) (UniProt Q96PH1); assay: ITC
[4] = target: MBP-fused human Nox5β dehydrogenase domain residues 665-719 (human) (UniProt Q96PH1); assay: ITC
[5] = target: human Nox5β CaM-binding domain (CMBD) peptide, residues 671-689 (human); assay: ITC
[6] = target: human Nox5β CaM-binding domain (CMBD) peptide, residues 671-689 (human); assay: fluorescence polarisation
[7] = target: N-terminal Dansyl-labeled human Nox5β CMBD peptide (human); assay: other fluorescence titration
[8] = target: human Nox5β CaM-binding domain (CMBD) peptide, residues 671-689 (human); assay: other fluorescence titration

Sequence of MBP-fused human Nox5β dehydrogenase domain residues 665-719 (human) (Q96PH1 711-765): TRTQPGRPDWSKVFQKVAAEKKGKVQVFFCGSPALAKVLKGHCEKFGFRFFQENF
Sequence of MBP-fused human Nox5β dehydrogenase domain residues 528-719 (human) (Q96PH1 574-765): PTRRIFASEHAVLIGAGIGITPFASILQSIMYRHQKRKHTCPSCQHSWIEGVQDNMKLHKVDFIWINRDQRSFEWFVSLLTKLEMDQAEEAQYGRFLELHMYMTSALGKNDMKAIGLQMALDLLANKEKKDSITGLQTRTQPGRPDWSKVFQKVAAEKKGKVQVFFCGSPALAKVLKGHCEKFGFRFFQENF
Sequence of MBP-fused human Nox5β dehydrogenase domain residues 605-719 (human) (Q96PH1 651-765): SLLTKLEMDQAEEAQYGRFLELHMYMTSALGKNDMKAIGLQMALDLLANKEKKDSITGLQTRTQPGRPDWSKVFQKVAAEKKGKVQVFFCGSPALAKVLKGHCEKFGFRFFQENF
Sequence of MBP-fused human Nox5β dehydrogenase domain residues 584-719 (human) (Q96PH1 630-765): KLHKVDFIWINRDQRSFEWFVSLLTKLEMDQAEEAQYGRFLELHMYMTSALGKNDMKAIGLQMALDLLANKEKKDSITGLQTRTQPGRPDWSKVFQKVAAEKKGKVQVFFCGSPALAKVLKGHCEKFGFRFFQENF

dH [1]: -19 kcal/mol
stoichiometry N ([peptide]/Protein]) [1]: 1.18
dH [2]: -16.8 kcal/mol
stoichiometry N ([peptide]/Protein]) [2]: 1.04
dH [3]: -14.8 kcal/mol
stoichiometry N ([peptide]/Protein]) [3]: 1.15
dH [4]: -8.21 kcal/mol
stoichiometry N ([peptide]/Protein]) [4]: 1.15
dH (per mole protein) [5]: -7.85 kcal/mol
stoichiometry N [5]: 0.521
stoichiometry N ([peptide]/Protein]) [5]: 1.79
stoichiometry N ([peptide]/Protein]) [6]: 1.91
stoichiometry N ([peptide]/Protein]) [7]: 2.11
stoichiometry N ([peptide]/Protein]) [8]: 2.1
Substance: recombinant 6xHis-tagged calmodulin (from UniProt P0DP23 1-149) (natural protein)
